The data set “dynamic light scattering” deals with the molecule itself. The data set can be described thus: dynamic light scattering.
The data set “crystal structure” deals with the molecule itself. Briefly: crystal structure.

Data on 2 proteins can be found in article PMC12313933 (Nature Communications, 2025).

B1: MIF(Y100H) variant (enzyme, human)
chain: MPMFIVNTNVPRASVPDGFLSELTQQLAQATGKPPQYIAVHVVPDQLMAFGGSSEPCALCSLHSIGKIGGAQNRSYSKLLCGLLAERLRISPDRVYINYHDMNAANVGWNNSTFA
B1: the “stoichiometry N” value in “dynamic light scattering” is 3.

B2: MIF(S61H/Y100H) variant (enzyme, human)
chain: MPMFIVNTNVPRASVPDGFLSELTQQLAQATGKPPQYIAVHVVPDQLMAFGGSSEPCALCHLHSIGKIGGAQNRSYSKLLCGLLAERLRISPDRVYINYHDMNAANVGWNNSTFA
B2: the binding result in the data set “crystal structure” is given as “binds”.

A word on the stoichiometry N: it is the number of molecules, sites or subunits per partner or assembly.
